In PMC6364133, “Selectivity of Dietary Phenolics for Inhibition of Human Monoamine Oxidases A and B” (BioMed Research International, 2019):
“And” between values parts separate entries of the source, which are not always exact repeats. Identical values can stand only once.

Columns and labels:
Format in all cases: biochemical, human
[1] = substrate: NCCC(=O)c1ccccc1N; assay: Kynuramine oxidative deamination kinetics (saturation, optimization) with MAO-A; conditions: other: kynuramine 2-500 μM, 15 min, mean ± SEM; pH 7.4; 37.0 °C
Description: (§1) The optimized incubation time and human recombinant MAO concentration were selected in the linear range from the time-dependent and MAO concentration-dependent studies (Supplemental Data). Briefly, samples were prepared in potassium phosphate buffer (100 mM, pH 7.4) with a final concentration of MAO in the reaction solution of 0.01 mg/mL, incubated at 37°C for 15 min. Saturation of kynuramine metabolism with MAO-A/B was carried out at concentrations of 2, 5, 10, 25, 50, 100, 250, 500 μM. The enzymatic reactions (200μL) were stopped by 2 N NaOH (75 μL) followed with 70% perchloric acid (25 μL). The samples were vortexed and centrifuged for 5 min at 10,000×g. The supernatant was analyzed by HPLC as described above.
(§2) GraphPad Prism 5 was applied to fit a Michaelis-Menten model to the data to obtain the Km values in the saturation experiments. In the screening experiments, significant differences between control and treated group were determined by a one-way ANOVA followed by Dunnett's posttest (p < 0.05). […] The maximum single doses are from published sources. The relevant GI concentration is the lesser of either solubility or the concentration after a single dose. […]
(§3) Kynuramine (10 µM) was incubated with MAO-A (0.01 mg/mL) in 200 µL potassium phosphate buffer (100 mM, pH 7.4) for 10, 20, 30, 40, and 60 min. The formation of 4-hydroxyquinoline was analyzed after the enzymatic reaction. […]

[2] = substrate: NCCC(=O)c1ccccc1N; assay: Kynuramine oxidative deamination kinetics (saturation, optimization) with MAO-B; conditions: other: kynuramine 2-500 μM, 15 min, mean ± SEM; pH 7.4; 37.0 °C
Description: as §1, §2, §3

[3] = substrate: NCCC(=O)c1ccccc1N; assay: Inhibition mechanism studies (competition, time dependence) with MAO-A; conditions: other: competition study control, kynuramine 2-450 μM
[4] = substrate: NCCC(=O)c1ccccc1N; assay: Inhibition mechanism studies (competition, time dependence) with MAO-B; conditions: other: competition study control, kynuramine 2-450 μM

B1: human recombinant MAO-A (Homo sapiens) (protein)
chain: MENQEKASIAGHMFDVVVIGGGISGLSAAKLLTEYGVSVLVLEARDRVGGRTYTIRNEHVDYVDVGGAYVGPTQNRILRLSKELGIETYKVNVSERLVQYVKGKTYPFRGAFPPVWNPIAYLDYNNLWRTIDNMGKEIPTDAPWEAQHADKWDKMTMKELIDKICWTKTARRFAYLFVNINVTSEPHEVSALWFLWYVKQCGGTTRIFSVTNGGQERKFVGGSGQVSERIMDLLGDQVKLNHPVTHVDQSSDNIIIETLNHEHYECKYVINAIPPTLTAKIHFRPELPAERNQLIQRLPMGAVIKCMMYYKEAFWKKKDYCGCMIIEDEDAPISITLDDTKPDGSLPAIMGFILARKADRLAKLHKEIRKKKICELYAKVLGSQEALHPVHYEEKNWCEEQYSGGCYTAYFPPGIMTQYGRVIRQPVGRIFFAGTETATKWSGYMEGAVEAGERAAREVLNGLGKVTEKDIWVQEPESKDVPAVEITHTFWERNLPSVSGLLKIIGFSTSVTALGFVLYKYKLLPRS
notes: purchased BD Biosciences (San Jose, CA) or Corning Discovery Labware (Woburn, MA)
[1]
  Km: 23.1 ± 0.8 µM and 23 µM
  Vmax: 10.2 ± 0.2 nmol/min/mg

B2: human recombinant MAO-B (Homo sapiens) (protein)
chain: MSNKCDVVVVGGGISGMAAAKLLHDSGLNVVVLEARDRVGGRTYTLRNQKVKYVDLGGSYVGPTQNRILRLAKELGLETYKVNEVERLIHHVKGKSYPFRGPFPPVWNPITYLDHNNFWRTMDDMGREIPSDAPWKAPLAEEWDNMTMKELLDKLCWTESAKQLATLFVNLCVTAETHEVSALWFLWYVKQCGGTTRIISTTNGGQERKFVGGSGQVSERIMDLLGDRVKLERPVIYIDQTRENVLVETLNHEMYEAKYVISAIPPTLGMKIHFNPPLPMMRNQMITRVPLGSVIKCIVYYKEPFWRKKDYCGTMIIDGEEAPVAYTLDDTKPEGNYAAIMGFILAHKARKLARLTKEERLKKLCELYAKVLGSLEALEPVHYEEKNWCEEQYSGGCYTTYFPPGILTQYGRVLRQPVDRIYFAGTETATHWSGYMEGAVEAGERAAREILHAMGKIPEDEIWQSEPESVDVPAQPITTTFLERHLPSVPGLLRLIGLTTIFSATALGFLAHKRGLLVRV
notes: as for B1
[2]
  Km: 18.0 ± 2.3 µM
  Vmax: 7.35 ± 0.69 nmol/min/mg

B3: MAO-A (Homo sapiens) (protein)
chain: B1 chain
notes: as for B1
[3]
  Km: 8.46 ± 1.56 µM
  Vmax: 17.4 ± 0.7 nmol/min/mg protein

B4: MAO-B (Homo sapiens) (protein)
chain: B2 chain
notes: as for B1
[4]
  Km: 14.4 ± 1.2 µM
  Vmax: 3.44 ± 0.07 nmol/min/mg protein
